Test results published in article PMC4821239, “Molecular architecture of the Dam1 complex–microtubule interaction” (Open Biology, 2016).

T1: Dam1 (budding yeast, UniProt P53267 1-343)
T1 construct: Dam1, subunit of the budding yeast Dam1 complex; Subunit inside the recombinant 10-subunit complex; also called Dam1 subunit; source: expressed and purified as part of the Dam1 complex as described [3]
T1 sequence (looked up): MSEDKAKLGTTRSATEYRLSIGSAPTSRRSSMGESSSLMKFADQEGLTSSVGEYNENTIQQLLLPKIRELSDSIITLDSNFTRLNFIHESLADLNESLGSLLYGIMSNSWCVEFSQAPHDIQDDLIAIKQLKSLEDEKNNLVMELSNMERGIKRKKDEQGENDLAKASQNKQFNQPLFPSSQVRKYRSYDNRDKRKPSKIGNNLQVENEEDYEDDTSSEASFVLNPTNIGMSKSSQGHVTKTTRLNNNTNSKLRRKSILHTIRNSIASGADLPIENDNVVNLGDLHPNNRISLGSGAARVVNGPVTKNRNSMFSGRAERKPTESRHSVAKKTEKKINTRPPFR

T2: Dad2 (budding yeast, UniProt P36162 1-133)
T2 construct: Dad2, subunit of the budding yeast Dam1 complex; Subunit inside the recombinant 10-subunit complex; source: expressed and purified as part of the Dam1 complex as described [3]
T2 sequence (looked up): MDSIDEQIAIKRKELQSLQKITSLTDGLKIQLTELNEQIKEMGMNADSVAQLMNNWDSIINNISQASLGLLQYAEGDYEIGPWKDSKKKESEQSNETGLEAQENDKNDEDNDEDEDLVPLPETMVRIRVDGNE

T3: Ask1 (budding yeast, UniProt P35734 1-292)
T3 construct: Ask1, subunit of the budding yeast Dam1 complex; Subunit inside the recombinant 10-subunit complex; source: expressed and purified as part of the Dam1 complex as described [3]
T3 sequence (looked up): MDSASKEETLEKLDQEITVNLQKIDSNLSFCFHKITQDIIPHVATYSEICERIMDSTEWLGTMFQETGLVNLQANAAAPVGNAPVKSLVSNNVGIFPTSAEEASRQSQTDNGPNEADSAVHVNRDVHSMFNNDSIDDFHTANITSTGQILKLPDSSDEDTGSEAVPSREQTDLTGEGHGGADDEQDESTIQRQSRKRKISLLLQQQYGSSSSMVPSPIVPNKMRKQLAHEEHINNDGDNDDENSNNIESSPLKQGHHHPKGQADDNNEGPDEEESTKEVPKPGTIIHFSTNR

T4: Spc19 (budding yeast, UniProt Q03954 1-165)
T4 construct: Spc19, subunit of the budding yeast Dam1 complex; Subunit inside the recombinant 10-subunit complex; also called Sp19; source: expressed and purified as part of the Dam1 complex as described [3]
T4 sequence (looked up): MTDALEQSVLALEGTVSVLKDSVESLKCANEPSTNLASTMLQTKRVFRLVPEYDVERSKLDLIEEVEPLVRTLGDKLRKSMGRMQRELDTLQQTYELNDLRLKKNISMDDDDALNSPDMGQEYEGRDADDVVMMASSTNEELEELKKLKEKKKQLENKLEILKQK

T5: Spc34 (budding yeast, UniProt P36131 1-295)
T5 construct: Spc34, subunit of the budding yeast Dam1 complex; Subunit inside the recombinant 10-subunit complex; source: expressed and purified as part of the Dam1 complex as described [3]
T5 sequence (looked up): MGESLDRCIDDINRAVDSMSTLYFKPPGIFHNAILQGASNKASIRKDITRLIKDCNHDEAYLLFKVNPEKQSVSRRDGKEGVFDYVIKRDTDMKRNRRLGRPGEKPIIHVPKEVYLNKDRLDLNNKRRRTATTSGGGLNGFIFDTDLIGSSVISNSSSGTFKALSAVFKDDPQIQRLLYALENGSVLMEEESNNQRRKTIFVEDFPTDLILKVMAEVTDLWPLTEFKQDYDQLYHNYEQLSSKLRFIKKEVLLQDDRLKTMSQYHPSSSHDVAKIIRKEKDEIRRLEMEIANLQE

B1: Dad4 (natural protein, budding yeast, UniProt P69851 1-72, looked up)
chain: MENPHEQVQANILSRIIGNVKRLNESVAILNQELVTINNRNKNLEIMGAICDNYHSSVQFNLEATNNKKPPL
notes: Dad4, subunit of the budding yeast Dam1 complex; Subunit inside the recombinant 10-subunit complex; source: expressed and purified as part of the Dam1 complex as described [3]

Assays:
Dam1 = molecular target: T1, Dam1; experiment: cross-linking; BS3, Dam1 complex at 0.3 mg/ml in BRB80, room temperature 40-60 min, digested in solution, mass spectrometry; some links may be between oligomerizing complexes; conditions: both partners purified
Dad2 [1] = molecular target: T2, Dad2; experiment: affinity purification with mass spectrometry; mutant Dam1 complexes purified by the His tag on Hsk3 (Ni-NTA), then Superose 6 size-exclusion chromatography; proteins identified by mass spectrometry; conditions: partners not purified
Dad4 = molecular target: B1; experiment: as above; conditions: partners not purified
Ask1 = molecular target: T3, Ask1; experiment: cross-linking; EDC with Sulfo-NHS, Dam1 complex assembled on taxol-stabilized microtubules in BRB80, pellet washed, room temperature 1 h, digested in solution, mass spectrometry; conditions: both partners purified
Spc19 = molecular target: T4, Spc19; experiment: cross-linking; BS3, Dam1 complex at 0.3 mg/ml in BRB80, room temperature 40-60 min, digested in solution, mass spectrometry; some links may be between oligomerizing complexes; conditions: both partners purified
Spc34 = molecular target: T5, Spc34; experiment: as above; conditions: both partners purified
Dad2 [2] = molecular target: T2, Dad2; experiment: cross-linking; BS3, Dam1 complex at 0.05 mg/ml in solution; cross-linked species (approx. 110, 220 and 440 kDa) separated by SDS-PAGE, bands cut out, in-gel trypsin digestion, mass spectrometry; conditions: both partners purified

Row | binding result (Dam1) | binding result (Dad2 [1]) | binding result (Dad4) | binding result (Ask1) | binding result (Spc19) | binding result (Spc34) | binding result (Dad2 [2]) | Binder
1 | binds | binds | binds |  |  |  |  | Hsk3 (natural protein, budding yeast, UniProt P69852 1-69, looked up, Hsk3, subunit of the budding yeast Dam1 complex; Subunit inside the recombinant 10-subunit complex; also called his-tagged Hsk3; source: expressed and purified as part of the Dam1 complex as described [3]; mutant complexes by Ni-NTA and Superose 6) MNANKQRQYNQLAHELRELQTNLQETTKQLDIMSKQCNENLVGQLGKVHGSWLIGSYIYYMEQMLGKTQ
2 | binds |  |  | binds | binds | binds | binds | B1
